Measured values from patent US20100292442A1.

What was measured:
[1] = target: huIL-17RA-FLAG-polyHis (human) (UniProt Q96F46); assay: Luminex binning; bead mAb J holds IL-17RA
[2] = target: huIL-17RA-FLAG-polyHis (human) (UniProt Q96F46); assay: Luminex binning; bead huIgG control (f15) + IL-17RA; self pair (boxed) [D00007 Fig. 8B]

huIgG (antibody) showed a normalized MFI [1] of 42 and a normalized MFI [2] of 65.
